Patent US20210147526A1 (PLIANT THERAPEUTICS, published 2021)
One block for each binder: values may come before it.

What was measured:
Human Integrin α7β1 [1] = target: T1, Human Integrin α7β1 (human, UniProt Q13683 34-1038; P05556 21-728, limits assumed); test: kinetics with RU read-out, integrin captured at 0.25 µg/mL, antibody as analyte, 1:1 binding model
T1 construct: also called human α7β1 integrin

Mouse Integrin α7β1 [2] = target: T2, Mouse Integrin α7β1 (mouse, UniProt Q61738 34-1032; P09055 21-728, limits assumed); test: as above
T2 construct: also called murine α7β1 integrin
T2 sequence (Q61738 other isoform, or with tags, fused parts or gaps limits assumed, chain 1 of 2): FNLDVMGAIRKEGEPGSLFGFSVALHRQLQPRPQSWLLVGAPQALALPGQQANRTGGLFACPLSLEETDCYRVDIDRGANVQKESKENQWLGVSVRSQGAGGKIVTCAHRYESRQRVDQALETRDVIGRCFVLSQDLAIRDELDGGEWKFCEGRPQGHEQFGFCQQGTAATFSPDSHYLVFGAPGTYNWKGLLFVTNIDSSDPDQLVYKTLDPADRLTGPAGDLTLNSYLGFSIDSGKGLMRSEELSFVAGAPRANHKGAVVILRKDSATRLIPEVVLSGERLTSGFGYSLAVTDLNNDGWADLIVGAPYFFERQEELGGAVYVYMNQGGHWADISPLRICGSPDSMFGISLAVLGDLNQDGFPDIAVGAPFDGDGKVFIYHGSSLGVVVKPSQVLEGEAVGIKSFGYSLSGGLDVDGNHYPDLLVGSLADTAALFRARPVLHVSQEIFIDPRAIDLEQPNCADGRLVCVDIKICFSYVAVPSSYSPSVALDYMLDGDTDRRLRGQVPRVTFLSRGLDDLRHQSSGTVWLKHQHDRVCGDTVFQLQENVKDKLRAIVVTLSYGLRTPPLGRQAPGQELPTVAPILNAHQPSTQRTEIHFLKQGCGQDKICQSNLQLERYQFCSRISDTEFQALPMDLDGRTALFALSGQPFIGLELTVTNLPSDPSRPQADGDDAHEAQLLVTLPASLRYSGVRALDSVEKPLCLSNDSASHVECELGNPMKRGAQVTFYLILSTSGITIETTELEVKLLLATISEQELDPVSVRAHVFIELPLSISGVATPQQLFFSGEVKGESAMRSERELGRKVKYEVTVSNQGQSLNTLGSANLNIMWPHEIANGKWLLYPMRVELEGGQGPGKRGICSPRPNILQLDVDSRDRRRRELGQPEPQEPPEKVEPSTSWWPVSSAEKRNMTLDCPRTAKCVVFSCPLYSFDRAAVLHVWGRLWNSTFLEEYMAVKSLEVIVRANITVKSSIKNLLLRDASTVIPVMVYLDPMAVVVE
T2 sequence (P09055 21-728 limits assumed, chain 2 of 2): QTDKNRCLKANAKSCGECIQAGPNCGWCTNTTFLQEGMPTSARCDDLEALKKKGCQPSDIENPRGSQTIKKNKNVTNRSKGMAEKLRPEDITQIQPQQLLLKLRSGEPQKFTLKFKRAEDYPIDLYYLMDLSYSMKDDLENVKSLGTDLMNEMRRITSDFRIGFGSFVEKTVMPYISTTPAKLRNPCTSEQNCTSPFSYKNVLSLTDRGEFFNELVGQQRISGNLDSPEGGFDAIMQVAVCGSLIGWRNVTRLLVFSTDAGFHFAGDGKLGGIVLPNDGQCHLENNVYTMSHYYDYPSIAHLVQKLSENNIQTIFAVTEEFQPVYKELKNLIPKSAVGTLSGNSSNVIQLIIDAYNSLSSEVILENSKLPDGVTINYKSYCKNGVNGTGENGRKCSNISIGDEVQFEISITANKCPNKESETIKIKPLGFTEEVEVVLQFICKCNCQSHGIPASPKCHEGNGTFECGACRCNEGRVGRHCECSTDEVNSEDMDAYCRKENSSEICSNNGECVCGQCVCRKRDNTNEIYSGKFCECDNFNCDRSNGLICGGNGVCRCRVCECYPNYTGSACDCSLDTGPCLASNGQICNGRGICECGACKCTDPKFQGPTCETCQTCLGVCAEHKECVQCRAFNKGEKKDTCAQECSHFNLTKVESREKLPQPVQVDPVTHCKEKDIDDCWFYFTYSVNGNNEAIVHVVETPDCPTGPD

human α6β1 integrin = human α6β1 integrin (human, UniProt P23229 24-1011; P05556 21-728, limits assumed); test: dose titration on integrins (FIG. 11B)
Sequence of human α6β1 integrin (P23229 other isoform, or with tags, fused parts or gaps limits assumed, chain 1 of 2): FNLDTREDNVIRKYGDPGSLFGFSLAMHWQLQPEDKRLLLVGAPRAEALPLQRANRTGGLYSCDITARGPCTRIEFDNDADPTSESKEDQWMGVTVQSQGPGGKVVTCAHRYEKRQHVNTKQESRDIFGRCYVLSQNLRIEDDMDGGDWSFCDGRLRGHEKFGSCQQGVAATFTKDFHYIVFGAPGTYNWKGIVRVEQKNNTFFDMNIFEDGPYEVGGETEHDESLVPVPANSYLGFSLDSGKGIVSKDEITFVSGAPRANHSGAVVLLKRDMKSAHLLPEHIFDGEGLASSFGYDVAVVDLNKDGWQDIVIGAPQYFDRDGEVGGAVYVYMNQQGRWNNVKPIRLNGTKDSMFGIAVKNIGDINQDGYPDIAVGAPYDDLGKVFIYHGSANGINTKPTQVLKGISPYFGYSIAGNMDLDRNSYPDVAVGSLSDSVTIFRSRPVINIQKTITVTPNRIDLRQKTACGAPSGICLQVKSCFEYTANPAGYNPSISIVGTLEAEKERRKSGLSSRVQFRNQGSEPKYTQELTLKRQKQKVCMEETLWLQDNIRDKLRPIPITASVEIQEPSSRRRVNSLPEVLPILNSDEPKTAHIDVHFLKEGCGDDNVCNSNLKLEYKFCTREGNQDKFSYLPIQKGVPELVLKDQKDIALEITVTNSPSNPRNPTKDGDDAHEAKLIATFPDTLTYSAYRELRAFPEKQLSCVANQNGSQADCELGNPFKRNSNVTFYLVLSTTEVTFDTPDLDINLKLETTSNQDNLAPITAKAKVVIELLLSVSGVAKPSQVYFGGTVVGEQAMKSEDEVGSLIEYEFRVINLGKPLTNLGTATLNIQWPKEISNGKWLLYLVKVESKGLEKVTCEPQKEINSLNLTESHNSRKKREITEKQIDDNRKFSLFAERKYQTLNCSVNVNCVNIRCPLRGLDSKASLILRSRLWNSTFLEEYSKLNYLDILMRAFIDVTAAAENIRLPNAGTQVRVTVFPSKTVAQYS
Sequence of human α6β1 integrin (P05556 21-728 limits assumed, chain 2 of 2): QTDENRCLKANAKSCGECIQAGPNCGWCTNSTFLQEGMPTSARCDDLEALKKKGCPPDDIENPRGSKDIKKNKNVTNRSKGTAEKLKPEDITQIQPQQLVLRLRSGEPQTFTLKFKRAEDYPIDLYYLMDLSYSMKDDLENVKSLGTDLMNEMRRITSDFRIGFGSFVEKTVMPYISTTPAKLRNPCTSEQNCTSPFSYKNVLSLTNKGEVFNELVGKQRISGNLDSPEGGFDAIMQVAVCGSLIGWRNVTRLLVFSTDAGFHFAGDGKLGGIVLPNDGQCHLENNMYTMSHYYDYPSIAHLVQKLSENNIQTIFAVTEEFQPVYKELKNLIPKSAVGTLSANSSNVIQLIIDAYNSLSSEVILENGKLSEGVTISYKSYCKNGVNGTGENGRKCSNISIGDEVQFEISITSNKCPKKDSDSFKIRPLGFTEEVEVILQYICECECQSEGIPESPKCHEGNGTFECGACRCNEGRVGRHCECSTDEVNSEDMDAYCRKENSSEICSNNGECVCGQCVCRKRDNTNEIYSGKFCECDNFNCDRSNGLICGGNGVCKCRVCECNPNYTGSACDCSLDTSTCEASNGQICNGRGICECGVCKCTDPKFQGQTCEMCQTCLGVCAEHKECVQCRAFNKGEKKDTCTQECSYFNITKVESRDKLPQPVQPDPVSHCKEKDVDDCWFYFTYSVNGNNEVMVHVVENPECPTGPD

human α5β1 integrin = human α5β1 integrin (human, UniProt P08648 42-995; P05556 21-728, limits assumed); test: dose titration on integrins (FIG. 11B)
[3] = target: cell surface integrin α7β1 (cells and species not stated); test: cell-based or functional assay
Human Integrin α7β1 [4] = target: T1, Human Integrin α7β1; test: comparison of the KD values of Table 8
Mouse Integrin α7β1 [5] = target: T2, Mouse Integrin α7β1; test: comparison of the KD values of Table 8
[6] = target: T3, human integrin alpha-7 (ITGA7) co-transfected with integrin beta-1 precursor (ITGB1) on HEK-293T cells, wild … (human, UniProt P05556 21-798, limits assumed); test: high-throughput flow cytometry on HEK-293T cells with ITGA7 + ITGB1 against vector alone, 0.5 µg/ml
T3 construct: whole, on cells; also called target protein; wild-type (WT) target protein
Description: (§1) Conditions for binding and screening of monoclonal antibodies and Fabs using high-throughput flow cytometry were optimized using wild-type target protein cloned into a proprietary vector and expressed in HEK-293T cells. The target protein is human integrin alpha-7 (ITGA7; UniProt ID Q13683; SEQ ID NO: 24). The binding of the VL3VHK20TFT monoclonal antibody and the VL3VHK20TFT Fab to HEK-293T cells co-transfected (1:1) with integrin beta-1 precursor (ITGB1) and integrin subunit alpha 7 (ITGA7) or with vector alone (negative control) was evaluated by high-throughput flow cytometry. The antibodies 3C12, 6A11, A1-1a M20, and A1-1a M24 were used as positive controls for ITGA7 binding.
(§2) Each point in FIG. 15 and FIG. 16 represents the mean of four replicates. The optimal screening concentration for each antibody or Fab (outlined in a box) was determined based on the raw signal values and signal-to-background calculations.

[7] = target: T3, human integrin alpha-7 (ITGA7) …; test: high-throughput flow cytometry on HEK-293T cells with ITGA7 + ITGB1 against vector alone, 2.0 µg/ml
Description: as §1, §2

[8] = target: T4, ITGA7 mutant R958A on HEK-293T cells (human, UniProt P05556 21-798); test: high-throughput flow cytometry on HEK-293T cells with the ITGA7 alanine mutant, high stringency, normalized to wild type
T4 construct: whole, on cells; Clone of the alanine-scan library of ITGA7
Description: (§3) In order to map the epitope of VL3VHK20TFT, an alanine-scan library of the target protein (ITGA7; SEQ ID NO: 24) was constructed. Shotgun mutagenesis epitope mapping was performed using the general procedure described in Davidson and Doranz, 2014, Immunology 143, 13-20. Briefly, a mutation library of the target protein was created by high-throughput, site-directed mutagenesis. Each residue was individually mutated to alanine, with alanine codons mutated to serine. The mutant library was arrayed in 384-well microplates and transiently transfected into HEK-293T cells. Following transfection, cells were incubated with the indicated antibodies (VL3VHK20TFT Fab or 6A11 monoclonal antibody (mAh)) at concentrations predetermined using an independent immunofluorescence titration curve on wild type protein. The antibodies were detected using an Alexa Fluor 488-conjugated secondary antibody, and mean cellular fluorescence was determined using Intellicyt® iQue flow cytometry platform. […] This counterscreen strategy facilitates the exclusion of mutants that are locally misfolded or that have an expression defect.
(§4) The binding of VL3VHK20TFT Fab and 6A11 mAh to each mutant clone in an alanine scanning library of ITGA7 mutants was determined, in duplicate, by high-throughput flow cytometry. For each point, background fluorescence was subtracted from the raw data, which were then normalized to antibody (Ab) reactivity with wild-type (WT) target protein. For each mutant clone, the mean binding value was plotted as a function of expression (represented by control reactivity). To identify preliminary primary critical clones (red circles), a threshold (dashed lines) of >70% WT binding to control Ab and <20% WT binding to test Abs was applied.

[9] = target: T5, ITGA7 mutant M976A on HEK-293T cells (human, UniProt P05556 21-798); test: as above
T5 construct: whole, on cells; Clone of the alanine-scan library of ITGA7
Description: as §3, §4

[10] = target: T6, ITGA7 mutant W978A on HEK-293T cells (human, UniProt P05556 21-798); test: as above
T6 construct: whole, on cells; Clone of the alanine-scan library of ITGA7
Description: as §3, §4

[11] = target: T7, ITGA7 mutant W979A on HEK-293T cells (human, UniProt P05556 21-798); test: as above
T7 construct: whole, on cells; Clone of the alanine-scan library of ITGA7
Description: as §3, §4

T1 sequence (Q13683 other isoform, or with tags, fused parts or gaps limits assumed, chain 1 of 2): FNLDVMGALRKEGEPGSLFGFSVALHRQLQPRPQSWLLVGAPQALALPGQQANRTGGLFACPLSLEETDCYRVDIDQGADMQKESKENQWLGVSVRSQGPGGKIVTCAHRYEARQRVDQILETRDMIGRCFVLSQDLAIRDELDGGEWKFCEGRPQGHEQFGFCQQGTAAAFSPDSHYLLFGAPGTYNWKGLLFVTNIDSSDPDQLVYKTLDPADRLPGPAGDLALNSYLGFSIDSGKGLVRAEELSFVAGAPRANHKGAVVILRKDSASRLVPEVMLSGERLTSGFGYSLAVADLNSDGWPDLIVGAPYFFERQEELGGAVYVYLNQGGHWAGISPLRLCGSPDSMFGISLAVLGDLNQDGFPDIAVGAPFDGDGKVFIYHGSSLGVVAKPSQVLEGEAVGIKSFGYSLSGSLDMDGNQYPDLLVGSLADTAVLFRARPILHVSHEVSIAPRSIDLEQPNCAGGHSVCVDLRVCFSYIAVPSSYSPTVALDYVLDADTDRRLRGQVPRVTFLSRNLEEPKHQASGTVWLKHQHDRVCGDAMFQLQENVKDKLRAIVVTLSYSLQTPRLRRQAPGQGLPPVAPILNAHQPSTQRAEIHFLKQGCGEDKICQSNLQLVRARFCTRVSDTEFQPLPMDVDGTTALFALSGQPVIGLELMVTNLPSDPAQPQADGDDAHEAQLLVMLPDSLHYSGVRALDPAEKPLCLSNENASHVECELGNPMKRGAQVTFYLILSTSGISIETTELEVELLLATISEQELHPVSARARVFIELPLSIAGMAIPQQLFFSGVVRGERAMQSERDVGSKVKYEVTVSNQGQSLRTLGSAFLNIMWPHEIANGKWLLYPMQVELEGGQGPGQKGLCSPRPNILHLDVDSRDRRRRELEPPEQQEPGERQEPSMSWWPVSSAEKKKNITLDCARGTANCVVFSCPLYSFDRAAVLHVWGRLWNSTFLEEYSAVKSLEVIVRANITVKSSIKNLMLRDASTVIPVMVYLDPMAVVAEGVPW
T1 sequence (P05556 21-728 limits assumed, chain 2 of 2): as the sequence (P05556 21-728 limits assumed, chain 2 of 2) above

Kd (Human Integrin α7β1 [1]): 1.96 nM
koff (Human Integrin α7β1 [1]): 0.000652 s⁻¹
kon (Human Integrin α7β1 [1]): 333000 M⁻¹ s⁻¹
Kd (Mouse Integrin α7β1 [2]): 21.8 nM
koff (Mouse Integrin α7β1 [2]): 0.00213 s⁻¹
kon (Mouse Integrin α7β1 [2]): 97600 M⁻¹ s⁻¹
B1: mouse α7β1 antibody VLVH (Chimera with human IgG4 Fc) (antibody, V domains shown)
VH: QVQLQQPGAELVKPGASVKLSCKASGYNFTKYWINWVKQRPGQGLEWIGIIYPGSSTSNYNEKFKTKATLTVEISSTTAYMQLSSLTSDDSAVYYCVRGDDWGQGTTLTVSS
VL: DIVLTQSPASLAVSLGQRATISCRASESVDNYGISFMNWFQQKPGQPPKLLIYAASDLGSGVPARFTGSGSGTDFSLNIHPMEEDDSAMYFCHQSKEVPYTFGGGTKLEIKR
notes: also called hIgG4-23; murine antibody (VLVH)

binding result (human α6β1 integrin): no binding
binding result (human α5β1 integrin): no binding
B2: antibody M36 (antibody, V domains shown)
VH: B1 VH
VL: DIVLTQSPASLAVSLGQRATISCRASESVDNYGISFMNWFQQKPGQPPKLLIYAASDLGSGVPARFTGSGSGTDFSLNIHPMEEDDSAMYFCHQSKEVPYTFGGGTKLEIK
notes: Mouse hybridoma monoclonal antibody; also called M36 agonist antibody

binding result (human α6β1 integrin): no binding
binding result (human α5β1 integrin): no binding
B3: antibody M38 (antibody, V domains shown)
VH: B1 VH
VL: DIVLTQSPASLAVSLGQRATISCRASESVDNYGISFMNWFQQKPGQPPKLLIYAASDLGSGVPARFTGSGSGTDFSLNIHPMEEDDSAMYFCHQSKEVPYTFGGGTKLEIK
notes: Mouse hybridoma monoclonal antibody

cell index (integrin α7β1 mediated cell adhesion) of DMD myoblast cells on laminin 211 [3]: ~5 fold
fold lower KD than the chimera antibody VLVH (Human Integrin α7β1 [4]): ~3.33 fold
fold lower KD than the chimera antibody VLVH (Mouse Integrin α7β1 [5]): ~11.1 fold
Kd (Human Integrin α7β1 [1]): 0.593 nM
koff (Human Integrin α7β1 [1]): 0.000153 s⁻¹
kon (Human Integrin α7β1 [1]): 258000 M⁻¹ s⁻¹
Kd (Mouse Integrin α7β1 [2]): 1.96 nM
koff (Mouse Integrin α7β1 [2]): 0.000469 s⁻¹
kon (Mouse Integrin α7β1 [2]): 239000 M⁻¹ s⁻¹
Signal:Background [6]: 18 ratio signal:background
B4: VL3VHK20TFT monoclonal antibody (antibody, human IgG4 S228P, kappa, V domains shown)
VH: QVQLVQSGAEVKKPGASVKVSCKASGYTFTKYWINWVRQAPGQGLEWMGIIYPGSSTSNYNEKFKTRVTMTVDTSTSTAYMELSSLRSEDTAVYYCVKNDNWGQGTLVTVSS
VL: DIQMTQSPSSLSASVGDRVTITCRASESVDNYGISFMNWFQQKPGKAPKLLIYAASDLGSGVPSRFSGSGSGTDFTLTISSLQPEDFATYYCHQSKEVPYTFGQGTKLEIKR
notes: Humanized M36/M38; also called hIgG4-36; hIgG-36

Signal:Background [7]: 12 ratio signal:background
Binding Reactivity (% WT) [8]: 27.8 % WT
Binding Reactivity (% WT) [9]: 29.5 % WT
Binding Reactivity (% WT) [10]: -0.3 % WT
Binding Reactivity (% WT) [11]: -0.7 % WT
B5: VL3VHK20TFT Fab (Fab, V domains shown)
VH: B4 VH
VL: DIQMTQSPSSLSASVGDRVTITCRASESVDNYGISFMNWFQQKPGKAPKLLIYAASDLGSGVPSRFSGSGSGTDFTLTISSLQPEDFATYYCHQSKEVPYTFGQGTKLEIK
notes: Fab of VL3VHK20TFT; also called VL3VHK20TFT Fab HS; Test Fab
